Results taken from paper PMC4728560 (Scientific Reports, 2016).
Entries after “also recorded” stand apart in the source; their conditions may differ.

Biological target: T1, Bcl-xL (Homo sapiens, UniProt Q07817, DEL27-82)
T1 construct: one containing the fragment 1-26, and the other the fragment 81-209; 6His (N, cleaved yes); made in house; host or cells: Escherichia coli BL21 (DE3) pRARE2
Test: Heterocomplex formation with Bcl-xL (native MS, SEC-MALS, gel filtration)
Assay type: binding
Settings: native MS: Bcl-xL(Δ27-81ΔCT), equimolar 100 μM, 30 °C, checked at 5 μM (for TCTP-R21A)
Procedure: When not specified, proteins tested for binding experiments were mixed at 100 μM, dialyzed against 10 mM CHES pH 9, 50 mM NaCl, 1 mM DTT or TCEP, depending on the analysis, and heated overnight at 30 °C.
For binding experiments, 100 to 200PL of protein mixture were loaded on a size exclusion chromatography (S200, GE Healthcare) column, while elution profiles were measured by UV absorption at 280 nm.
SEC-MALS experiments were performed on a multi-angle light scattering detector (miniDAWN TREOS, Wyatt Technologies) coupled in-line with SEC and an interferometric refractometer (Optilab T-rEX, Wyatt Technologies). See Supplementary Information for full details.
Prior to any mass spectrometry experiment, protein buffer was exchanged twice against a 50 mM ammonium acetate (NH4Ac) solution at pH 9.0 using microcentrifuge gel filtration columns (Zeba 0.5 ml, Thermo Scientific, Rockford, IL). Protein concentration was determined spectrophotometrically. […]
Supplementary Table 1. Measured molecular weights in denaturing conditions Sample Theoretical molecular Measured molecular Associated mass (Da) mass (Da) species […]
Gel filtration. For binding experiments, 100 to 200PL of protein mixture were loaded on a size exclusion chromatography (S200, GE Healthcare) column, while elution profiles were measured by UV absorption at 280nm. […]

T1 sequence (Q07817 with tags, fused parts or gaps DEL27-82): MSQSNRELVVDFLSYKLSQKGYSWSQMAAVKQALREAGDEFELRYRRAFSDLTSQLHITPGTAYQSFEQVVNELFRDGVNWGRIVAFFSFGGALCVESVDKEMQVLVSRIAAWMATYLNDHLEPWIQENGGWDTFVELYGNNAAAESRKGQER

For “TCTP: Translationally Controlled Tumor Protein (TCTP/tpt1), recombinant full-length”, which “complex formation with Bcl-xL” value is on record?
Its value is “forms a heterotetramer with Bcl-xL; also recorded: forms heterotetrameric complexes with Bcl-xL”.
